Experimental findings from paper doi:10.1101/2023.03.21.533612 are described below.

The assay addresses NStr-M35_S, M35 short version (aa 2-452) with N-terminal Twin-Strep tag and TEV cleavage sequence (murine cytomegalovirus (MCMV)). The assay can be described thus: SEC-MALS. (In general: In gel filtration, larger molecules generally elute earlier.)

On to “NStr-M35_S, M35 short version (aa 2-452) with N-terminal Twin-Strep tag and TEV cleavage sequence (domain or fragment)”, for which the stoichiometry N (in general, the number of molecules, sites or subunits per partner or assembly) worked out at 2.
